We go through 3 molecules from patent US6300103A, “Anti-microbial proteins” (Syngenta Participants AG, priority 1993, dated 2001).

To fix the notation:
B1: peak 3.1: anti-microbial protein of about 7 kDa from sugar beet leaf intercellular washing fluid, peak 3.1 in FIG. 3 (protein)
chain: ITCGLVASKLAPCIGYLQGAPGPSAGCCGGIKGLNSAAASPADRKTACTCLKSAATSIKGINYGKAASLPRQCGVSVPYAISPNTNCNAIH
B2: peak 3.2: anti-microbial protein of about 7 kDa from sugar beet leaf intercellular washing fluid, peak 3.2 in FIG. 3 (protein)
chain: B1 chain with I58M, V77I

Numbering of substitutions follows the chain as printed. Ends that are not written are not given here.

The experiment concerns C. beticola. The experiment in a line: microtiter plate bioassay of inhibition of fungal growth (absorbance at 620 nm). In kind it is cell-based. To be noted: spores of C. beticola in 96 well micro-titre plates, FIGS. 4, 7-8 (10 ug alone, 2 ug each in combination). How it is done:
The thus obtained IWF is fractionated by cation exchange chromatography on a 10 ml CM-Sepharose column (Pharmacia LKB) pre-equilibrated in starting buffer (20 mM HAc (pH 4.5)). The fractionation is performed at 4° C. at a flow rate of 25 ml/h. Fractions of 3 ml are collected. Proteins not bound to the column are removed by extensive washing of the column with starting buffer. Bound proteins are eluted by applying to the column further starting buffer comprising stepwise increased salt concentrations: viz, 0.1 M NaCg, 0.3 M NACl and 0.5 M NaCl. The absorbance at 280 nm of the eluate is measured, and fractions judged to comprise protein are tested for their anti-fungal activity against C. beticola using the microtiter plate bioassay described previously (PCT Patent Application No. PCT/DK92/00108, Publication No. WO 92/17591, now assigned to Sandoz LTD). […] The inhibition of fungal growth is measured in 96 well micro-titre plates at 620 nm, essentially as described in WO 92/17591. […] The proteins, either alone or in combination with WIN N (which is purified from barley grain or stressed barley leaf as described by Hejgaard et al (FEBS Letters, 307, 389-392 (1992)), and/or a protein having a sequence corresponding to at least one of those given in SEQ ID Nos. 4-6, are incubated with spores of C. beticola. The assay mix (240 ul) contains 100 ul of potato dextrose broth (Difco), 40 ul protein sample (or buffer control) in 100 mM Tris and 20 mM NaCl (pH 8.0) as well as approximately 400 spores in 100 ul water. The micro-titre plates are sealed with tape to avoid evaporation and contamination and subsequently incubated at room temperature on an agitator operated at 200 rpm. The absorbance at 620 nm is measured each day for 8 days and plotted for each concentration of protein vs time.
As to “peaks 1 and 2: anti-microbial protein of 2.5-3 kDa (dimer about 5 kDa) from sugar beet, peaks 1 and 2 in FIG. 6 (SGECNMYGRCPPGYCCSKFGYCGVGRAYCG; cysteine pairing not given here; also: dimer about 5 kDa)”, the “anti-fungal activity (inhibition of fungal growth)” value is “significant anti-fungal activity”.
As to B1, the “anti-fungal activity (inhibition of fungal growth)” value is reported as “significant anti-fungal activity”.
For B2, the “anti-fungal activity (inhibition of fungal growth)” value is listed as “significant anti-fungal activity”.
